4 substances from patent publication US20220340678A1 can be followed below.

Experiment [1] addresses IL-12 receptor on HEK-BLUE IL-12 cells. The experiment is described as follows: cell-based or functional assay.
The target of experiment [2] is p40 without a fusion partner (human) (UniProt P29460). The experiment can be described thus: cell-based or functional assay.
Experiment [3] deals with p40-IgG (anti-uPAR M37 IgG) (human) (UniProt P29460). The experiment can be described thus: cell-based or functional assay.
Sequence of p40-IgG (anti-uPAR M37 IgG) (human) (P29460 23-328): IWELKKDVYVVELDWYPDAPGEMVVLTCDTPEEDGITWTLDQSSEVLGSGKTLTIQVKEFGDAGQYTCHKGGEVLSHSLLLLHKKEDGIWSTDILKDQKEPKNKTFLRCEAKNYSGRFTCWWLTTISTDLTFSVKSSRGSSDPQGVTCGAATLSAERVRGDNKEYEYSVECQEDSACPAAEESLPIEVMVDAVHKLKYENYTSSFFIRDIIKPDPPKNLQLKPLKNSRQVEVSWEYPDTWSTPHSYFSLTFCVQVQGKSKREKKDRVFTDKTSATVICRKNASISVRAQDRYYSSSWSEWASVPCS
Experiment [4] concerns the target p40-Fab fusion protein (human) (UniProt P29460). The experiment can be described thus: cell-based or functional assay.
The target in experiment [5] is p35-MSA fusion protein (human; mouse) (UniProt P29459). The experiment can be described thus: BLI (Octet), biotinylated p35-MSA against p40-fab, 24 hr at 37 C.
Sequence of p35-MSA fusion protein (human; mouse) (P29459 23-219): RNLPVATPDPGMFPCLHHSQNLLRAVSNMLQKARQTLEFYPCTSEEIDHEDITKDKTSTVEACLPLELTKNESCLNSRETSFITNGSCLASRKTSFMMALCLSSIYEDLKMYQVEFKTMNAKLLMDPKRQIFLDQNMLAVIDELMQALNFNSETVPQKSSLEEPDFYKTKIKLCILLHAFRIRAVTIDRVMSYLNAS
Experiment [6] has the same target. The experiment can be described thus: BLI (Octet), biotinylated p35-MSA against p40-fab, 47 hr at 37 C.
Experiment [7] has the same target. The experiment can be described thus: BLI (Octet), biotinylated p35-MSA against p40-fab, 0 hr at 37 C.
Experiment [8] shares this target. The experiment can be described thus: BLI (Octet), biotinylated p35-MSA against p40-fab, 4 hr at 37 C.
Experiment [9] addresses GM-CSF receptor on U937 cells (human). The experiment can be described thus: cell-based or functional assay.

Sequence of p40-Fab fusion protein (P29460 23-328): as the sequence (P29460 23-328) above
Sequence of p40-Fab fusion protein (human) (P29460 23-328): as above

On to “wild-type human IL-12 (R&D Systems, Cat. No. 219-IL-005/CF) (from UniProt P29459 23-219; P29460 23-328) (ligand)”, for which, in experiment [1], the potency, SEAP reporter in HEK-BLUE IL-12 cells was 0.018 nM.
In experiment [2], “p35-MSA fusion protein (from UniProt P29459 23-219)” gave an EC50, % pStat4 formation in CD4+ T cells of 0.842 nM; an EC50, % pStat4 formation in CD8+ T cells of 1.06 nM; an EC50, IFN gamma production by T cells of 0.657 nM; an EC50 fold change relative to scIL-12, IFN gamma production of 128 fold. In [2], this substance gave an EC50 fold change relative to scIL-12, pStat4 in CD4+ T cells of 16.4 fold and an EC50 fold change relative to scIL-12, pStat4 in CD8+ T cells of 14.2 fold. In addition, in experiment [3], the EC50, % pStat4 formation in CD4+ T cells stood at 0.173 nM; the EC50, % pStat4 formation in CD8+ T cells was determined as 0.571 nM; the EC50, IFN gamma production by T cells was found to be 0.403 nM; the EC50 fold change relative to scIL-12, IFN gamma production came to 78.2 fold. Further, in experiment [3], the EC50 fold change relative to scIL-12, pStat4 in CD4+ T cells was found to be 3.37 fold and the EC50 fold change relative to scIL-12, pStat4 in CD8+ T cells was determined as 7.66 fold. Further, in [4], the EC50, % pStat4 formation in CD4+ T cells turned out to be 0.708 nM; the EC50, % pStat4 formation in CD8+ T cells turned out to be 0.912 nM; the EC50, IFN gamma production by T cells stood at 0.559 nM; the EC50 fold change relative to scIL-12, IFN gamma production is 109 fold. In experiment [4], this substance showed an EC50 fold change relative to scIL-12, pStat4 in CD4+ T cells of 13.8 fold and an EC50 fold change relative to scIL-12, pStat4 in CD8+ T cells of 12.2 fold.
As to “p40-Fab fusion protein (from UniProt P29460 23-328)”, the dissociation constant (Kd) (as a rule, the concentration at which binding is half-saturated) in experiment [5] is 11.1 nM; in [6] it was 10.5 nM; in experiment [7], 7.82 nM; in experiment [8] it was 7.54 nM. Moreover, the off-rate (koff) – broadly, the rate constant with which the complex falls apart – in [5] came out at 0.000422 s⁻¹; in [6] it was 0.000376 s⁻¹; in [7], 0.000462 s⁻¹; in experiment [8] it was 0.000385 s⁻¹. Further, the association rate constant (kon) – broadly, the second-order rate constant of association – came to 38100 M⁻¹ s⁻¹ in experiment [5], 35800 M⁻¹ s⁻¹ in experiment [6], 59100 M⁻¹ s⁻¹ in [7] and 51100 M⁻¹ s⁻¹ in experiment [8].
With “recombinant human GM-CSF (R&D Systems, cat # 215-GM-050/CF) (from UniProt P04141 18-144) (ligand)”, the pSTAT5 EC50, U937 cells, no competitor in experiment [9] was determined as 18.6 pM.
